In publication PMC7957560:

Each sequence was assayed on viral hemagglutinin on virions (vHA) (Influenza A virus A/chicken/Kurgan/3654at/2005 (H5N1)) (assay: BLI). Settings: BLI at 30 C in sodium-potassium phosphate buffer pH 7.4 ([…].

Question: For GGGAGGGAGGGAGGG [G7nt-A_A_A], which Kd is on record?
Answer: The Kd was 0.2 nM.

Question: How did the Kd turn out when GGGAGGGAGGGCGGG [G7nt-A_A_C] was run?
Answer: Its Kd is 0.3 nM.

Question: For GGGAGGGTGGGTGGG [G7nt-A_T_T], which Kd is on record?
Answer: Its Kd is 0.2 nM.

Question: With GGGTGGGAGGGCGGG [G7nt-T_A_C] as the sequence, how does the Kd read?
Answer: The Kd was 0.3 nM.

Question: GGGTGGGAGGGTGGG [G7nt-T_A_T] was tested. Which Kd did it give?
Answer: The Kd was 0.07 nM.

Question: With GGGTGGGTGGGAGGG [G7nt-T_T_A] as the sequence, how does the Kd read?
Answer: Its Kd is 0.7 nM.

Question: GGGTGGGTGGGTGGG [G7nt-T_T_T] was tested. Which Kd did it give?
Answer: Its Kd is 0.6 nM.

Question: GGGTTATTTTGGGAGGGCGGG [G7nt] was tested. Which Kd did it give?
Answer: The Kd was 0.13 nM.

Question: With GGGTTATTTTGGGAGGGCGGGGGTT [G7n5t] as the sequence, how does the Kd read?
Answer: Its Kd is 0.04 nM.

Question: TTGGGGTTAGGGAGGGCGGGGGTT [G7-TTA_A_C] was tested. Which Kd did it give?
Answer: Its Kd is 0.04 nM.

Question: How did the Kd turn out when “TTGGGGTTATTAAGGGAGGGCGGGGGTT [G7-TTATTAA_A_C]” was run?
Answer: The Kd was 0.09 nM.

Question: For TTGGGGTTATTTTGGGAGGGCGGG [G7n3t], which Kd is on record?
Answer: The Kd was 0.16 nM.

Question: TTGGGGTTATTTTGGGAGGGCGGGGGTT [RHA0385] was tested. Which Kd did it give?
Answer: The Kd was 0.05 nM.
